Measured values published in the supplement of paper PMC10724198.
± gives the standard deviation of the averaged measurements.

tested on: Saccharomyces cerevisiae; assay: protein stability index of tFT-peptide fusion (C-terminal peptide) (PSI (0-1 scale)); higher = more stable (slower turnover); details: genetic background: wild type; temperature: 30 C
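Note: PSI is a weighted mean of sequencing reads over stability bins, variants kept only with over 10 reads, mCherry proximal and sfGFP distal, peptide attached via GGGS linker.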

| Sequence | protein stability index |
| --- | --- |
| PFPTPPPIPRSP | 0.464 ± 0.05 |

tested on: Saccharomyces cerevisiae; assay: as above; details: genetic background: cdc34-1; temperature: 37 C
Description: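 MPS profiling in S. cerevisiae of the tFT-X12 degron library: putative degron peptides plus stable controls, 12 aa, fused to the C-terminus of a sfGFP-mCherry timer. Cells are FACS-sorted into 8 mCherry/sfGFP bins and deep-sequenced. PSI runs from 0 (unstable) to 1 (stable). Backgrounds are wild type, das1Δ and doa10Δ at 30 °C, and wild type, das1Δ, cdc34-1 and cdc53-1 at 37 °C; 2-3 technical replicates each.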

| Sequence | protein stability index |
| --- | --- |
| LIICRSFLCKVR | 0.236 ± 0.026 |
| LILIVVVAGSVG | 0.201 ± 0.019 |
| LIMIRLLYLRLI | 0.166 ± 0.15 |
| LINHSWLLLSVL | 0.368 ± 0.017 |
| LLCSLGFRFSLF | 0.651 ± 0.033 |
| LLFGCLIRIGCS | 0.268 ± 0.017 |
| LLILSVRPFVFV | 0.479 ± 0.0094 |
| LLLALLFWPCPI | 0.5178 ± 0.0016 |
| LLLIGISFLIFY | 0.184 ± 0.048 |
| LLLTAIRVLRMH | 0.561 ± 0.016 |
| LLLVCYSTFIVA | 0.287 ± 0.057 |
| LLLVPLLAFSAS | 0.56 ± 0.054 |
| LLMFWLSIWFWG | 0.22 ± 0.0092 |
| LLPYSLSLALRA | 0.395 ± 0.0049 |
| LLSFSQLGYFVL | 0.634 ± 0.056 |
| LLSGHFRLLLAF | 0.0523 ± 0.014 |
| LLVCLGYFLFLG | 0.37 ± 0.025 |
| LNVEEGGGLENV | 0.698 ± 0.043 |
| LPHPLPFCFSLY | 0.711 ± 0.024 |
| LPLLLFYLPIIW | 0.4647 ± 0.0038 |

| Sequence | protein stability index |
| --- | --- |
| LPPFLSSLPSSP | 0.715 ± 0.027 |
| LPPSPPAPLSRL | 0.906 ± 0.024 |
| LQIKSFTSQRLA | 0.509 ± 0.021 |
| LRFMLLSFLVIL | 0.251 ± 0.021 |
| LRFVCALGYCVW | 0.577 ± 0.042 |
| LRNVPCLVFFWV | 0.5656 ± 0.0038 |
| LRSVLGWGLFLA | 0.45 ± 0.033 |
| LSCFCLFCLSFC | 0.634 ± 0.053 |
| LSFLALLLFFRI | 0.228 ± 0.035 |
| LSGIILGWSVSG | 0.755 ± 0.047 |
| LSLVYFAALFSF | 0.484 ± 0.042 |
| LSTPPLLPTPPS | 0.672 ± 0.029 |
| LSVMKLFVMVGP | 0.442 ± 0.0094 |
| LSVSLFPIRYVG | 0.666 ± 0.027 |
| LVVIYPLLSSPV | 0.564 ± 0.0066 |
| LWFFVGFAVYGG | 0.302 ± 0.0084 |
| LWFRGGYLFFVV | 0.44378 ± 0.00022 |
| LWVTRVYCLLVC | 0.0444 ± 0.016 |
| LYIQWVSRWSVQ | 0.611 ± 0.029 |
| LYLCLVSPVVVL | 0.156 ± 0.011 |

| Sequence | protein stability index |
| --- | --- |
| LYLGCVLFVLFR | 0.197 ± 0.045 |
| LYSVLWFCFPLV | 0.586 ± 0.039 |
| LYVLNILSFVCV | 0.1572 ± 0.0013 |
| MALAVRVVKCGA | 0.328 ± 0.016 |
| MCRMYELYVTSS | 0.504 ± 0.046 |
| MIILGFILYFFW | 0.4 ± 0.011 |
| NAPSAIQKNKKC | 0.696 ± 0.016 |
| NDSSWEVSLMVG | 0.693 ± 0.019 |
| NECLSSKWLRIC | 0.399 ± 0.013 |
| NFKELMEKSKYR | 0.704 ± 0.02 |
| NLTAIIYTLVVD | 0.2313 ± 0.0018 |
| NQIIRLIVGLLC | 0.55 ± 0.039 |
| PCLLRYLVHPFP | 0.687 ± 0.026 |
| PCPAPRPPSPSA | 0.664 ± 0.078 |
| PDCRPPLVRCLL | 0.9585 ± 0.0082 |
| PFALTPPPSPRS | 0.745 ± 0.011 |
| PFFCFLLFCFSL | 0.477 ± 0.032 |
| PFFLLAGITVAC | 0.0507 ± 0.023 |
| PFLCLPFLLVSR | 0.38 ± 0.022 |
